Measurements from patent US20060069024A1 (PURDUE RESEARCH FOUNDATION, published 2006).

Legend:
[1] = molecular target: T1, STE7-Myc fusion protein (Saccharomyces cerevisiae, UniProt P06784 1-515, limits assumed); experiment: pull-down with osmotin-Sepharose 4B, anti-myc (myc1-9E10) immunoblot
T1 construct: Used as a cell extract of BWG7a expressing the fusion, as a control for the c-myc tag; also called c-myc tagged STE7; pNC267 product; not shown: Myc tag
T1 sequence (looked up): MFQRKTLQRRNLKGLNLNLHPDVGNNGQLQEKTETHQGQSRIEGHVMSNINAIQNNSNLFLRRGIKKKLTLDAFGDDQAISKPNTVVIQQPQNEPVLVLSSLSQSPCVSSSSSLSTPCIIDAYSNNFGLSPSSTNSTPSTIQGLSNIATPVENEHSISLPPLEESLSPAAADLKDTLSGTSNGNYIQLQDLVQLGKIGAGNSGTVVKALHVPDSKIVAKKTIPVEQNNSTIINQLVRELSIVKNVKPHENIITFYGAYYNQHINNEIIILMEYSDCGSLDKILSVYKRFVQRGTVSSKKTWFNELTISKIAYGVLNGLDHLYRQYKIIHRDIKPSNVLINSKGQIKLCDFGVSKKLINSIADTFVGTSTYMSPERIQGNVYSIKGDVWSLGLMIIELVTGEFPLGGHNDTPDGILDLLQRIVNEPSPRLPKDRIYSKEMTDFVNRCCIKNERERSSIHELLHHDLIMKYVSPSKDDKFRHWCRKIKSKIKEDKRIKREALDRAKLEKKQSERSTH
Method: FIG. 4: PHO36 Interacts Specifically with Osmotin In Vitro and In Vivo. A. Osmotin-Sepharose 4B was incubated with cell extract of the strain BWG7a expressing the fusion protein STE7-Myc (lane 1), total membrane fraction purified from the strain ΔPHO36 (lane 2) or total membrane fraction purified from the strain BWG7a expressing c-myc tagged PHO36 from the plasmid pPHO36MH (lanes 3-8) in the absence (lanes 1, 2, and 5) or presence of the competitor proteins A9 (100 μg, lane 3; or 10 μg, lane 7), osmotin (Osm; 100 μg, lane 4; or 10 μg, lane 6), or BSA (100 μg, lane 8). After extensive washing, bound proteins were dissociated, separated by SDS-PAGE and the c-Myc tag was immunodetected with mycl-9E10 antibodies. B. Spheroplasts (10⁹ml⁻¹) derived from the Δpho36 mutant (Δpho36), and the wild-type strain BWG7a carrying the plasmid pPHO36MH (pPHO36) were incubated with ³⁵S-osmotin (0.4 μM, 0.16 μCi) for 1 hr, without (none) or with a 10-fold molar excess of A9, BSA, or osmotin as competitors. After extensive washing, ³⁵S-osmotin retained on spheroplasts was counted.
Protein interaction assays in solution. Osmotin was coupled to CNBr-activated Sepharose 4B (Pharmacia Biotech) according to the manufacturer's instructions. […]

[2] = molecular target: T2, PHO36t (product of the truncated PHO36 cDNA isolated in the screen) (Saccharomyces cerevisiae, UniProt Q12442 116-317, limits assumed); experiment: cell-based or functional assay
T2 sequence (looked up): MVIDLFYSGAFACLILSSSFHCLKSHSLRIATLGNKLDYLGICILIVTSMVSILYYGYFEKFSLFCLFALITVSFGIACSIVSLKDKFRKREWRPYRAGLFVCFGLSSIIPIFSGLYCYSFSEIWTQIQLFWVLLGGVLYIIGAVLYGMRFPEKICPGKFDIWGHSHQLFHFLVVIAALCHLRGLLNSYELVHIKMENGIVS

[3] = molecular target: T3, PHO36 (endogenous, wild-type strain BWG7a) (Saccharomyces cerevisiae, UniProt Q12442 1-317); experiment: cell-based or functional assay
T3 sequence (looked up): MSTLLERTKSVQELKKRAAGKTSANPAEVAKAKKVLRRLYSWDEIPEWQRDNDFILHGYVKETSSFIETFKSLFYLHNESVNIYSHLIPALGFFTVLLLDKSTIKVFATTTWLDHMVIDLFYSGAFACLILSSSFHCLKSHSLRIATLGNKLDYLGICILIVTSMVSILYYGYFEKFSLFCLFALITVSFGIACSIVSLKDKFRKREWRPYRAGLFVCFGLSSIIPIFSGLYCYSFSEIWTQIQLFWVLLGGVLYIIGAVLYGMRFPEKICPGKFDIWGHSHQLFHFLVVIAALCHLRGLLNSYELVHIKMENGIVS

[4] = molecular target: T4, PHO36MH (PHO36 with c-myc epitope and hexa-His tag fused in-frame at the C-terminus) (Saccharomyces cerevisiae, UniProt Q12442 1-317); experiment: 35S-osmotin binding to yeast spheroplasts, scintillation counting, non-specific binding subtracted
T4 construct: whole, on cells; Overexpressed in BWG7a from the multicopy plasmid pPHO36MH; It was used as a detergent-solubilised total membrane fraction in the pull-down and on spheroplasts in the 35S-osmotin assay; Bands of about 36 and 72 kDa were read as monomers and dimers; also called c-myc tagged PHO36; recombinant PHO36MH; not shown: c-myc tag; hexa-His tag
T4 sequence (looked up): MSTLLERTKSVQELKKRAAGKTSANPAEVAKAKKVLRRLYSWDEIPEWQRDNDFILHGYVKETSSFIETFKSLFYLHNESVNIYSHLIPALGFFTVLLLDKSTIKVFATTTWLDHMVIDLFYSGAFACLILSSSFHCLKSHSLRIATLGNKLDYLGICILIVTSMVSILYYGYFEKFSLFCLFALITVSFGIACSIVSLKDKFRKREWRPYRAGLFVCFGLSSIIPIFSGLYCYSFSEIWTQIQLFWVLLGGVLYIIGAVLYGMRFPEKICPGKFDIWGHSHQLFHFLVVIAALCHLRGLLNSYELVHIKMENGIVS
Method: After extensive washing, bound proteins were dissociated, separated by SDS-PAGE and the c-Myc tag was immunodetected with mycl-9E10 antibodies. B. Spheroplasts (10⁹ml⁻¹) derived from the Δpho36 mutant (Δpho36), and the wild-type strain BWG7a carrying the plasmid pPHO36MH (pPHO36) were incubated with ³⁵S-osmotin (0.4 μM, 0.16 μCi) for 1 hr, without (none) or with a 10-fold molar excess of A9, BSA, or osmotin as competitors. After extensive washing, ³⁵S-osmotin retained on spheroplasts was counted.
³⁵S-Osmotin Binding Assay. Osmotin was radiolabeled to a specific-activity of 12 Ci mmol⁻¹ using the ³⁵SLR reagent (Amersham), according to manufacturer's instructions. Yeast cells were grown YPD medium until A₆₀₀ₙₘ 0.6 and then harvested by centrifugation. The pellet was resuspended in 1M sorbitol (A₆₀₀ₙₘ 6) and treated with lyticase (100 U ml⁻¹). After digestion of the cell wall was completed, spheroplasts were collected by centrifugation, washed twice with 1M sorbitol and resuspended in 1M sorbitol (10⁹ml⁻¹). The binding reaction was initiated by the addition of 2 μl of 35S-osmotin (1 μCi, 3 μg) to 300 μl of spheroplasts (0.3×10⁹). […] Spheroplasts were collected by centrifugation, washed twice, resuspended 1M sorbitol (50 μl) and counted in a liquid scintillation counter in 5 ml of EcoLume™ (ICN Biomedicals). […]

B1: osmotin (ligand)
chain: ATIEVRNNCPYTVWAASTPIGGGRRLDRGQTWVINAPRGTKMARVWGRTNCNFNAAGRGTCQTGDCGGVLQCTGWGKPPNTLAEYALDQFSGLDFWDISLVDGFNIPMTFAPTNPSGGKCHAIHCTANINGECPRELRVPGGCNNPCTTFGGQQYCCTQGPCGPTFFSKFFKQRCPDAYSYPQDDPTSTFTCPGGSTNYRVIFCPNGQAHPNFPLEMPGSDEVAK
notes: Purified osmotin (26 kDa globular protein, mostly a monomer in solution); also called tobacco PR-5 protein; 35S-osmotin
binding result [1]: no binding
IC50 for osmotin of cells overexpressing PHO36t (viable counts after one hour of osmotin treatment, galactose medium) [2]: 200 nM
fold change of IC50 for osmotin, cells overexpressing PHO36t against control cells with the empty vector [2]: 3 fold
IC50 for osmotin of control cells transformed with the empty vector (viable counts after one hour of osmotin treatment, galactose medium) [3]: 600 nM
IC50 for osmotin of the wild type strain (compared with the PHO36 disruptant) [3]: 600 nM
fold 35S-osmotin bound, spheroplasts of the PHO36MH-overexpressing strain against the wild-type strain with empty vector [4]: ~3 times
